The source of these data is the Human Domainome abundance scans (Beltran et al. 2025).

± gives the uncertainty stated by the source.

A short description of the data set: abundance fitness (aPCA) (normalised: wild type 0, dead -1); higher = more abundant; growth selection in yeast, the domain comes from the species named. The following applies: Homo sapiens.
Turning to “Lipoamide acyltransferase component of branched-chain alpha-keto acid dehydrogenase complex, mitochondrial Q212I, P11182”, the abundance fitness was -0.255 ± 0.089. For “Lipoamide acyltransferase component of branched-chain alpha-keto acid dehydrogenase complex, mitochondrial Q212K, P11182”, the abundance fitness came out at 0.007 ± 0.061. Consider “Lipoamide acyltransferase component of branched-chain alpha-keto acid dehydrogenase complex, mitochondrial Q212L, P11182”, for which the abundance fitness is -0.189 ± 0.043. Consider “Lipoamide acyltransferase component of branched-chain alpha-keto acid dehydrogenase complex, mitochondrial Q212M, P11182”, for which the abundance fitness is -0.108 ± 0.049. For the substance “Lipoamide acyltransferase component of branched-chain alpha-keto acid dehydrogenase complex, mitochondrial Q212N, P11182”, the abundance fitness was 0.124 ± 0.14. Under “Lipoamide acyltransferase component of branched-chain alpha-keto acid dehydrogenase complex, mitochondrial Q212P, P11182” stands -0.017 ± 0.036. As to “Lipoamide acyltransferase component of branched-chain alpha-keto acid dehydrogenase complex, mitochondrial Q212R, P11182”, the abundance fitness came to 0.085 ± 0.042. For “Lipoamide acyltransferase component of branched-chain alpha-keto acid dehydrogenase complex, mitochondrial Q212S, P11182”, the abundance fitness turned out to be 0.004 ± 0.04. Regarding “Lipoamide acyltransferase component of branched-chain alpha-keto acid dehydrogenase complex, mitochondrial Q212T, P11182”, the abundance fitness was 0.017 ± 0.06. Consider “Lipoamide acyltransferase component of branched-chain alpha-keto acid dehydrogenase complex, mitochondrial Q212V, P11182”, for which the abundance fitness is -0.075 ± 0.038. For “Lipoamide acyltransferase component of branched-chain alpha-keto acid dehydrogenase complex, mitochondrial Q212W, P11182”, the abundance fitness was -0.218 ± 0.046. The substance “Lipoamide acyltransferase component of branched-chain alpha-keto acid dehydrogenase complex, mitochondrial Q212Y, P11182” displayed an abundance fitness of 0.108 ± 0.44. “Lipoamide acyltransferase component of branched-chain alpha-keto acid dehydrogenase complex, mitochondrial R178A, P11182”: the abundance fitness was -0.028 ± 0.043. In the case of “Lipoamide acyltransferase component of branched-chain alpha-keto acid dehydrogenase complex, mitochondrial R178C, P11182”, the abundance fitness was -0.173 ± 0.083. With “Lipoamide acyltransferase component of branched-chain alpha-keto acid dehydrogenase complex, mitochondrial R178D, P11182”, the abundance fitness was -0.626 ± 0.076. As for “Lipoamide acyltransferase component of branched-chain alpha-keto acid dehydrogenase complex, mitochondrial R178E, P11182”, the abundance fitness is -0.022 ± 0.053. As to “Lipoamide acyltransferase component of branched-chain alpha-keto acid dehydrogenase complex, mitochondrial R178F, P11182”, the abundance fitness was -0.261 ± 0.1.

“Lipoamide acyltransferase component of branched-chain alpha-keto acid dehydrogenase complex, mitochondrial R178G, P11182”: the abundance fitness was -0.361 ± 0.046.
